Laboratory results reported in paper PMC3380823.

Experiments:
[1] = molecular target: CrPLC C7A mutant (Chlamydomonas reinhardtii); test: SEC; HiLoad 16/60 Superdex 200 prep grade and Superose 12 10/300 GL analytical columns, PBS, 1 ml/min, 4°C, no reducing agent; calibrated with molecular weight standards; 5 to 50 µM on the analytical column; monomer and dimer fractions reloaded
[2] = molecular target: recombinant phospholipase C of Chlamydomonas reinhardtii (CrPLC), wild type (Chlamydomonas reinhardtii); test: as above

percent of dimerization disrupted [1] [%]	stoichiometry N [2]	Substance
95		CrPLC C7A mutant (enzyme)
	2	recombinant phospholipase C of Chlamydomonas reinhardtii (CrPLC), wild type (enzyme)
